Target: truncated human NOTCH2^ΔERA-TurboID (human)
Test: proximity labelling; TurboID fusions stably expressed in HT-29; 500 uM biotin for one hour; streptavidin beads; label-free quantitative mass spectrometry (DIA, Q-Exactive HF X), TurboID alone as control

Log2FC NICD2RA-vs-NICD2 (log2 fold change): -2.03
percent of the NOTCH2 recovered (against NICD2-TurboID): 13%
Substance: endogenous human NOTCH2 (NICD2) (natural protein)

Reference: PMC11670933
